Here are results for 41 sequences from the nanobody polyreactivity screen of Harvey et al. (2022).

This data set is described as follows: yeast display, Sf9 membrane polyspecificity reagent, FACS + sequencing; frameworks hold sequencing errors. The procedure, abridged: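 Nanobodies came from a synthetic yeast display library in Saccharomyces cerevisiae BJ5465, induced with galactose for 36–48 hours and stained for 1 hour at 4 °C with 10% biotinylated, detergent-solubilized Sf9 membrane reagent. Cells were enriched on streptavidin microbeads and then FACS-sorted, with low and high (top ~1%) gates set on anti-HA fluorescence for expression and streptavidin fluorescence for reagent binding. Each polyreactivity label reflects the gate a clone came from. Genes were amplified by colony PCR, sequenced by MiSeq 2 × 250 and filtered by CDR length.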
Regarding “QVQLVESGGGLVQAGGSLRLSCAASGSIFGHNTMGWYRQPPGKERELVAAITWNGGRTYYADSVKGRFTISRDNAKNTVYLQMNSLKPEDTAVYYCNAVVKTYGYKAHRYPSSRLNYWGQGTQVTVSS”, the “polyreactivity (PSR sort gate)” value was “high polyreactivity”.
As for “QVQLVESGGGLVQAGGSLRLSCAASGSIFGHYAMGWYRQAPGKERELVAAISWSGTSTYYADSVKGRFTISRDNAKNTVYLQMNSLKPEDTAVYYCAAEASYNYGKYVVTYDYWGQGTQVTVSS”, the entry is “high polyreactivity”; as for “QVQLVESGGGLVQAGGSLRLSCAASGSIFGIYAMGWYRQAPGKERELVATITYSGGTTYADSVKGRFTISRDNAKNTVYLQMNSLNPEDTAVYYCAAGGDYAYDCWGQGTQVTVSS”, “low polyreactivity”; as for “QVQLVESGGGLVQAGGSLRLSCAASGSIFGKNAMGWYRQAPGKEREFVAAITNTGGDTYYADSVKGRFTISRDNAKNNVYLQMNSLKPEDTAVYYCNARKRKTSLYKFNYWGQGTQVTVSS”, “high polyreactivity”.
For the sequence “QVQLVESGGGLVQAGGSLRLSCAASGSIFGKYAMGWYRQAPGKERELVAAISWSGGSTYYADSVKGRFTISRDNAKNTVYLQMNSLKPEDTAVYYCAATFRGTFRRIWTDTRAYDYWGQGTQVTVSS”, the “polyreactivity (PSR sort gate)” value is reported as “high polyreactivity”.
As for “QVQLVESGGGLVQAGGSLRLSCAASGSIFGKYAMGWYRQAPGKERELVAAITGRGASTYYADSVKGRFTISRDNAKNTVYLQMNSLKPVDTAVYYCAARASWYYVYPYDYWGQGTQVTVSS”, the entry is “low polyreactivity”; as for “QVQLVESGGGLVQAGGSLRLSCAASGSIFGLNAMGWYRPAHGKETELVAAISGGSTNYADSVKGRFTISRDNAKNTVYLQMNSLKTDDTAVYYCAARARRRYYYWGQGTQVTVSS”, “high polyreactivity”.
The same measure for “QVQLVESGGGLVQAGGSLRLSCAASGSIFGLNAMGWYRPEPGQESALVAAISYSGGTTYYADSVKGRFTISRDNAKNSVYLQMNSLKPEDTAVYYCATRARYVGGYKYNYWGQGTQVTVSS”: “high polyreactivity”.
As for “QVQLVESGGGLVQAGGSLRLSCAASGSIFGLNAMGWYRQAPGKERELVAAISCGSTNYADSVKGRFTISRDNAKYTVYLQMNSLKPEDTAVYYCAARARRRYYYWGQGTQVTVSS”, the entry is “high polyreactivity”.
On to “QVQLVESGGGLVQAGGSLRLSCAASGSIFGLNAMGWYRQAPGKERELVARISTGSSTNYADSVKGRFTISRDHAKNSVYLQMNSLKPEDTAVYYCNADYPYYPYRENYWGQGTQVTVSS”, for which the “polyreactivity (PSR sort gate)” value is on record as “low polyreactivity”.
As for “QVQLVESGGGLVQAGGSLRLSCAASGSIFGLYAMGWYRQAPGIERALVAAITTTGGSTYYADSVKGRFTISRDNAKNTVYLQMNSLKPEDTAVYYCNADYVAYGPEYDYWGQGTQVTVSS”, the entry is “low polyreactivity”; as for “QVQLVESGGGLVQAGGSLRLSCAASGSIFGLYAMGWYRQAPGKERELVAAINQSGGSTSYADSVKGRFTISRDNAKNTVYLQMNSLKPEDTAVYYCAAKRSWGATRRAYGRYDYWGQGTQVTVSS”, “low polyreactivity”; as for “QVQLVESGGGLVQAGGSLRLSCAASGSIFGLYAMGWYRQAPGKERELVAAINQSGGSTSYADSVKGRFTISRDNAKNTVYLQMNSLKPEDTAVYYCNRVRLNTEGFDYWGQGTQVTVSS”, “low polyreactivity”.
As for “QVQLVESGGGLVQAGGSLRLSCAASGSIFGNAMGWYRQAPGKERELVAAISRRGGRTYYADSVKGRFTISRDNAKNTVYLQMNSLKPEDTAVYYCNKYVTPWNEMDYWGQGTQVTVSS”, the entry is “high polyreactivity”.
The same measure for “QVQLVESGGGLVQAGGSLRLSCAASGSIFGPYAMGWYRQAPGKERELVAAITIGGDNTYYADSVKGRFTISRDNAKNTVYLQMNSLKPEDTAVYYCAAKYYCGKPHYYEYYYWGQGTQVTVSS”: “low polyreactivity”; for “QVQLVESGGGLVQAGGSLRLSCAASGSIFGPYSMGWYRQAPGKERELVAAISWRGGTTRYADSVKGRFTISRDNAKNTVYLQMNSLKPEDTAVYYCNRTVYSKTQYDYDYWGQGTQVTVSS”: “high polyreactivity”.
As for “QVQLVESGGGLVQAGGSLRLSCAASGSIFGQNAMGWYRQAPGKERELVAAITSGAGITYYADSVKGRFTISRDNAKNTVYLQMNSLKPEDTAVYYCNAVPSWTPSPLFDYWGLGTQVTVSS”, the “polyreactivity (PSR sort gate)” value is recorded as “low polyreactivity”.
As for “QVQLVESGGGLVQAGGSLRLSCAASGSIFGRNTMGWYRQAPGKERELVAAISRSGGSTYYADSVKGRFTISRDNAKNTVYLQMNSLKPEDSAVYYCAARGKYDYSGVSFNYWGQGTQVTVSS”, the entry is “high polyreactivity”.
As for “QVQLVESGGGLVQAGGSLRLSCAASGSIFGRYAMGWYRQAPGKERELVAAISSSGGRTYYADSVKGRFTISRDNAKNTVYLQMNSLKPEDTAVYYCNAGTPYRGDYWGQGTQVTVSS”, the entry is “high polyreactivity”.
In the case of “QVQLVESGGGLVQAGGSLRLSCAASGSIFGRYAMGWYRQAPGKERELVASITRGAGSTYYADSVKGRFTISRDNAKNTVYLQMNSLKPEDTAVYYCRLAPRYRKGGYWGQGTQVTVSS”, the “polyreactivity (PSR sort gate)” value is reported as “high polyreactivity”.
As for “QVQLVESGGGLVQAGGSLRLSCAASGSIFGRYGMVWSRPAPGKERELVAAITSATRTNYADSVKGRFTISRDNAKNTVYLQMNSLKPEDTAVYYCAKQTYRRLPQTPYNYWGQGSQVTVSS”, the entry is “low polyreactivity”.
As for “QVQLVESGGGLVQAGGSLRLSCAASGSIFGRYVMGWYRQAPGKERELVAAINRSGGRTYYADSVKGRFTISRDTAKNTVYLQMNSLKPEDTAVYYCATYTRSSASKEVPYDYWGQGTEVTVSS”, the entry is “high polyreactivity”; as for “QVQLVESGGGLVQAGGSLRLSCAASGSIFGSNAMGWYRQAPGKERELVAAISYRGGSTYYADSVKGRFTISRDNAKNTVYLQMNSLKPEDTAFYYCAKVSSYKPYDYWGLGTQVTVSS”, “low polyreactivity”; as for “QVQLVESGGGLVQAGGSLRLSCAASGSIFGSNAMGWYRQAPGKERELVAAITNTGRTNYADSVKGRFTISRDNAKNTVYLQMNSLKPEDTAVYYCNTDCYEFTHFVGGWYQIIDYDYWGQGSQVTVSS”, “low polyreactivity”.
As for “QVQLVESGGGLVQAGGSLRLSCAASGSIFGSNAMGWYRQSPGKERELVAAISRSGGSTYYADSVKGRFTISRDNAKNTVYLQMNSLKPEDTAVYYCAVVASRSHTETPEYDFWGQVTQVTVSS”, the entry is “low polyreactivity”; as for “QVQLVESGGGLVQAGGSLRLSCAASGSIFGSNTMGWYRQAPGKERELVAAINSSGGSTYYADSVKGRFTISRDNAKNTVYLQMNSLKPEDTEVYYCNAASYRFFPYLYYYWGQGTQVTVSS”, “high polyreactivity”.
As to “QVQLVESGGGLVQAGGSLRLSCAASGSIFGSYAMGWYRQAPGKERELVAGITYRGSSTYYADSVKGRFTISRDNAKNTVYLQMNSLKPEDTAVYYCAADPVFDEYDYWGQGTQVTVSS”, the “polyreactivity (PSR sort gate)” value is “low polyreactivity”.
As for “QVQLVESGGGLVQAGGSLRLSCAASGSIFGSYAMGWYRQAPGKERELVASITRVDSTNYADSVKGRFTISRDNAKNTVYLQMNSLKPEDTAVYYCNAGSRTTAGGMDSWGQGTQVTVSS”, the entry is “low polyreactivity”; as for “QVQLVESGGGLVQAGGSLRLSCAASGSIFGSYAMGWYRQAPGKERSTYYADSVKGRFTISRDNAKNTVYLQMNSLKPEDTAVYYCAADTYGYQGSAGGHWGQGTQVTVSS”, “low polyreactivity”.
Turning to “QVQLVESGGGLVQAGGSLRLSCAASGSIFGSYDMGWYRQAPGKERELVAAISEGGGSTYYADTVKGRFTISRDNAMNTVYLQMYSLKPEDTAVYYCAADLILSYYPYYQDYYWGQGTQVTVSS”, the “polyreactivity (PSR sort gate)” value is given as “low polyreactivity”.
The same measure for “QVQLVESGGGLVQAGGSLRLSCAASGSIFGSYTMGWYRQAPGKERELVAAINASGGRTYYADSVKGRFTISRDNAKNTVYLQMNSLKPEDTAVYYCNKATYYQTYDYWGQGTQVTVSS”: “high polyreactivity”; for “QVQLVESGGGLVQAGGSLRLSCAASGSIFGSYTMGWYRQAPGKERELVAVINWSGDRTYYADSVKGRFTISRDNAKNNVYLHMNSLKPEDTAVYYCAARERAGYSGIRYNYWGQGSQVTVSS”: “low polyreactivity”; for “QVQLVESGGGLVQAGGSLRLSCAASGSIFGTNAMGCYRQAPGKERELVAAIDGGSTTYYADSVKGRFTISRDNAKNTVYLQMNSLKPEDTAVYYCAADGTRSLNYAGYAGYEYWGQGTQVTVSS”: “low polyreactivity”.
The same measure for “QVQLVESGGGLVQAGGSLRLSCAASGSIFGTNAMGWYRQAPGKERELVAAIDGGSTTYYADSVKGRFTISRDNAKNTVYLQMNSLKPEDTAVYYCAADGTRYLNYEGYAGYEYWGQGTQVTVSS”: “low polyreactivity”.
As for “QVQLVESGGGLVQAGGSLRLSCAASGSIFGTNAMGWYRQAPGKERELVAAINWSGGTTYYADSVKGRFTISRDNAKNTVYLQMNSLKPEDTAVYYCATVFFVLPPTRFDSWGQGTQVTVSS”, the entry is “low polyreactivity”; as for “QVQLVESGGGLVQAGGSLRLSCAASGSIFGTNAMGWYRQAPGKERELVATITSAGSTYYADSVKGRFTISRDNAKNTVYLQMNSLKPEDTAVYYCARQATGYVYREYDYWGQGTQVTVSS”, “low polyreactivity”.
Turning to “QVQLVESGGGLVQAGGSLRLSCAASGSIFGTNGMGWYRQAPGKERELVAAITRRGGSTYADSVKGRFTISRDNAKNTVYLQMNSLKPEDTAVYYCAVDQGYVVRLAWIYGYWGQGTQVTVSS”, the “polyreactivity (PSR sort gate)” value is “low polyreactivity”.
The same measure for “QVQLVESGGGLVQAGGSLRLSCAASGSIFGTYAIGWDRQAPGKERELVAAISRGGRTYYADSVKGRFTISRDNAKNTVYLQMNSLKPEDTAVYYCAARTVGLRGYYYWGQGTQVTVSS”: “high polyreactivity”.
The same measure for “QVQLVESGGGLVQAGGSLRLSCAASGSIFGTYAMGWYRQAPGKEREFVAAISWADGSTYYADSVKGRFTISRDNAKNTVYLQMNSLNPEDTAVFYCAVRRVGSIYIDRYIYVVADYDYWGQGTQVTVSS”: “low polyreactivity”.
As for “QVQLVESGGGLVQAGGSLRLSCAASGSIFGTYAMGWYRQAPGKEREFVAAISWSDGSTYYADSVKGRFTISRDNAKNTVYLQMNSLKPEDTAVYYCAAKSDPYRHDYWGQGTQVTVSS”, the entry is “low polyreactivity”; as for “QVQLVESGGGLVQAGGSLRLSCAASGSIFGTYAMGWYRQAPGKERELVAAISWSDGSTYYADSVKGRFTISRDNAKNTVYLQMNSLKPEDTAVYYCAKVYRSIGPNVSRYGLSYYYWGQGSQVTVSS”, “low polyreactivity”.
